# According to patent US6866997:
# Experiments:
# [1] = test system: anti-ras optimised zinc finger peptide (F1 position +3 Asn) (synthetic); settings: apparent Kd; phage display, Zn
# [2] = test system: anti-ras lead zinc finger peptide (designed) (synthetic); settings: apparent Kd; phage display
# [3] = target: F2-Arg finger 3 Asp2Ala finger 3 helix position 2 D to A (synthetic) (UniProt P08046); settings: about four-fold reduced affinity versus F2-Arg; phage ELISA, Zn, 20 C
# [4] = target: Zif268 DNA-binding domain finger 3 Asp2Ala finger 3 helix position 2 D to A (UniProt P08046); settings: about four-fold reduced affinity versus wild-type Zif268; phage ELISA, Zn, 20 C
sequence,measurement,setting,value
GACGGCGCC (double strand),Kd,[1],3 nM
same,Kd,[2],17 nM
GCGGTGGCG (double strand) [F2-Arg consensus site],binding signal,[3],4 fold
GCGTGGGCG (double strand) [Zif268 consensus site],binding signal,[4],4 fold
